B1: Secreted effector protein SifA (Salmonella typhimurium), Q56061 (parent)
chain: MPITIGNGFLKSEILTNSPRNTKEAWWKVLWEKIKDFFFSTGKAKADRCLHEMLFAERAPTRERLTEIFFELKELACASQRDRFQVHNPHENDATIILRIMDQNEENELLRITQNTDTFSCEVMGNLYFLMKDRPDILKSHPQMTAMIKRRYSEIVDYPLPSTLCLNPAGAPILSVPLDNIEGYLYTELRKGHLDGWKAQEKATYLAAKIQSGIEKTTRILHHANISESTQQNAFLETMAMCGLKQLEIPPPHTHIPIEKMVKEVLLADKTFQAFLVTDPSTSQSMLAEIVEAISDQVFHAIFRIDPQAIQKMAEEQLTTLHVRSEQQSGCLCCFL
partner: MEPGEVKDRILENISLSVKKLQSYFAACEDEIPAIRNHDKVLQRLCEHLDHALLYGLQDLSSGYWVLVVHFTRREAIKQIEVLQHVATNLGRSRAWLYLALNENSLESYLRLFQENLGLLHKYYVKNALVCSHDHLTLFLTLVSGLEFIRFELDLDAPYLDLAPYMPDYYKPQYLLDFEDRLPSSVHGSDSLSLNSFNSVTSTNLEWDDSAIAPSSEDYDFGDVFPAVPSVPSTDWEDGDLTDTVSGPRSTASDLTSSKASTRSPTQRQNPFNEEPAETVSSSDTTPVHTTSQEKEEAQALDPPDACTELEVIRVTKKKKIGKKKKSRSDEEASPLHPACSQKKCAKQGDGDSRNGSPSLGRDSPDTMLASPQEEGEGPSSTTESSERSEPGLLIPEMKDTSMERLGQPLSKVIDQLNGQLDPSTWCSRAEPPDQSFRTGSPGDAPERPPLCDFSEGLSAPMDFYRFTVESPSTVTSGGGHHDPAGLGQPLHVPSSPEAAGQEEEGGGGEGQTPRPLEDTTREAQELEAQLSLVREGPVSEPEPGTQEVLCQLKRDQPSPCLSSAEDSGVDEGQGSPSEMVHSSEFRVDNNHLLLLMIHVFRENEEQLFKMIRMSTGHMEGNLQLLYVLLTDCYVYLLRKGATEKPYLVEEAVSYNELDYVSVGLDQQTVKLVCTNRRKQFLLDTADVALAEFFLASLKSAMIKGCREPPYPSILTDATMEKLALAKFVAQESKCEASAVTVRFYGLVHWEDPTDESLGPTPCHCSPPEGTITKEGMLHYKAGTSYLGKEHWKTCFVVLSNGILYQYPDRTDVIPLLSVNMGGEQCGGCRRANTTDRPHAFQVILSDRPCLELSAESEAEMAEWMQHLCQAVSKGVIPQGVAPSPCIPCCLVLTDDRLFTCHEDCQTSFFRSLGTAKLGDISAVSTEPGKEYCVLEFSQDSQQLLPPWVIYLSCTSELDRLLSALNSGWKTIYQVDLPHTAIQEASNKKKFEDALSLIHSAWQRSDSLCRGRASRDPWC

Variants of: B1
Details: with pkhm2_human PLEKHM2, Q8IWE5

| Variant | effect of a mutation on the interaction |
| --- | --- |
| MPITIGNGFLKSEILTNSPRNTKEAWWKVLWEKIKDFFFSTGKAKADRCLHEMLFAERAPTRERLTEIFFELKELACASQRDRFQVHNPHENDATIILRIMDQNEENELLRITQNTDTFSCEVMGNLYFLMKDRPDILKSHPQMTAMIKRRYSEIVDYPLPSTLCLNPAGAPILSVPLDNIEGYLYTELRKGHLDGAKAQAKATYLAAKIQSGIEKTTRILHHANISESTQQNAFLETMAMCGLKQLEIPPPHTHIPIEKMVKEVLLADKTFQAFLVTDPSTSQSMLAEIVEAISDQVFHAIFRIDPQAIQKMAEEQLTTLHVRSEQQSGCLCCFL [W197A;E201A] | decreasing interaction |

— IntAct's records for PubMed 18787122
